Test results published in publication doi:10.1101/2020.06.11.147496.

Target: LuS-N71-SpyTag (Aquifex aeolicus lumazine synthase nanoparticle with a glycan at N71 and SpyTag at the N-terminus) (Aquifex aeolicus)

“SARS-CoV-2 spike-SpyCatcher (prefusion-stabilized SARS-CoV-2 spike trimer fused with a C-terminal SpyCatcher)” gave a percent of nanoparticle subunits conjugated of 91%.
